First the molecules themselves.
B1: DVD473 DLL4 arm (antibody)
chain 1: EVQLVESGGGLVQPGGSLRLSCAASGFTFTDNWISWVRQAPGKGLEWVGYISPNSGFTYYADSVKGRFTISADTSKNTAYLQMNSLRAEDTAVYYCARDNFGGYFDYWGQGTLVTVSS
chain 2: DIQMTQSPSSLSASVGDRVTITCRASQDVSTAVAWYQQKPGKAPKLLIYSASFLYSGVPSRFSGSGSGTDFTLTISSLQPEDFATTYYCQQSYTGTVTFGQGTKVEIKR
modifications: DVD-Ig outer
B2: DVD475 DLL4 arm (antibody)
chain 1: B1 chain 1
chain 2: B1 chain 2
modifications: DVD-Ig outer
B3: DVD474 DLL4 arm (antibody)
chain 1: B1 chain 1
chain 2: B1 chain 2
modifications: DVD-Ig inner
B4: DVD482 DLL4 arm (antibody)
chain 1: B1 chain 1
chain 2: B1 chain 2
modifications: DVD-Ig inner
B5: DVD472 DLL4 arm (antibody)
chain 1: B1 chain 1
chain 2: B1 chain 2
modifications: DVD-Ig inner
B6: DVD490 DLL4 arm (antibody, V domains shown)
VH: EVQLQQSGPELVKPGASVKMSCKASGYTFTSYVINWVKQKPGQGLEWIGLINPYNDGTKYNEKFKVKATLTSDKSSSTAYMELSSLTSEDSAVYYCASYYYGSRYYFDYWGQGTTLTVSS
VL: DIQMTQSSSYLSVSLGGRVTITCKASDHINNWLAWYQQKPGNAPRLLISGATSLETGVPSRFSGSGSGKDYTLSITSLQTEDVATYYCQQYWSIPLTFGAGTKLELKR
modifications: DVD-Ig inner
B7: DVD500 DLL4 arm (antibody, V domains shown)
VH: B6 VH
VL: B6 VL
modifications: DVD-Ig inner
B8: DVD507 DLL4 arm (antibody, V domains shown)
VH: B6 VH
VL: B6 VL
modifications: DVD-Ig outer
B9: DVD495 DLL4 arm (antibody, V domains shown)
VH: B6 VH
VL: B6 VL
modifications: DVD-Ig outer
B10: DVD508 DLL4 arm (antibody, V domains shown)
VH: B6 VH
VL: B6 VL
modifications: DVD-Ig inner
B11: DVD451 DLL4 arm (antibody, V domains shown)
VH: QVQLVQSGAEVKKPGASVKISCKASGYSFTAYYIHWVKQAPGQGLEWIGYISSYNGATNYNQKFKGRVTFTTDTSTSTAYMELRSLRSDDTAVYYCARDYDYDVGMDYWGQGTLVTVSS
VL: DIVMTQSPDSLAVSLGERATISCRASESVDNYGISFMKWFQQKPGQPPKLLIYAASNQGSGVPDRFSGSGSGTDFTLTISSLQAEDVAVYYCQQSKEVPWTFGGGTKVEIKR
modifications: DVD-Ig outer
B12: DVD453 DLL4 arm (antibody, V domains shown)
VH: B11 VH
VL: B11 VL
modifications: DVD-Ig outer
B13: DVD446 DLL4 arm (antibody, V domains shown)
VH: B11 VH
VL: B11 VL
modifications: DVD-Ig inner
B14: DVD455 DLL4 arm (antibody, V domains shown)
VH: B11 VH
VL: B11 VL
modifications: DVD-Ig outer
B15: DVD457 DLL4 arm (antibody, V domains shown)
VH: B11 VH
VL: B11 VL
modifications: DVD-Ig outer
B16: DVD448 DLL4 arm (antibody, V domains shown)
VH: B11 VH
VL: B11 VL
modifications: DVD-Ig inner
B17: DVD459 DLL4 arm (antibody, V domains shown)
VH: B11 VH
VL: B11 VL
modifications: DVD-Ig outer
B18: DVD463 DLL4 arm (antibody, V domains shown)
VH: B11 VH
VL: B11 VL
modifications: DVD-Ig outer
B19: DVD444 DLL4 arm (antibody, V domains shown)
VH: B11 VH
VL: B11 VL
modifications: DVD-Ig inner
B20: DVD514 DLL4 arm (antibody, V domains shown)
VH: EVQLQQSGPELEKPGASVKISCKASGYSFTGYNMNWVKQSNGKSLEWIGNIDPYFGGTNYNQKFKGKATLTVDKSSSTAYMQLKSLTSEDSAVYYCARNYDYDGGCFDYWGQGTTLTVSS
VL: QAVVTQESALTTSPGETVTLTCRSSTGAVTTSNYANWVQEKPDHLFTGLIGGTNNRAPGVPARFSGSLIGDKAALTITGAQTEDEAIYFCALWYSNHWVFGGGTKLTVLG
modifications: DVD-Ig inner
B21: DVD522 DLL4 arm (antibody, V domains shown)
VH: B20 VH
VL: B20 VL
modifications: DVD-Ig inner
B22: DVD513 DLL4 arm (antibody, V domains shown)
VH: B20 VH
VL: B20 VL
modifications: DVD-Ig outer
B23: DVD534 DLL4 arm (antibody, V domains shown)
VH: B20 VH
VL: B20 VL
modifications: DVD-Ig inner
B24: DVD527 DLL4 arm (antibody, V domains shown)
VH: B20 VH
VL: B20 VL
modifications: DVD-Ig outer
B25: DVD520 DLL4 arm (antibody, V domains shown)
VH: B20 VH
VL: B20 VL
modifications: DVD-Ig inner

The target of this test is DLL4 (human, UniProt Q9NR61). Kind of test: ELISA.
Chain of DLL4 (Q9NR61 27-524): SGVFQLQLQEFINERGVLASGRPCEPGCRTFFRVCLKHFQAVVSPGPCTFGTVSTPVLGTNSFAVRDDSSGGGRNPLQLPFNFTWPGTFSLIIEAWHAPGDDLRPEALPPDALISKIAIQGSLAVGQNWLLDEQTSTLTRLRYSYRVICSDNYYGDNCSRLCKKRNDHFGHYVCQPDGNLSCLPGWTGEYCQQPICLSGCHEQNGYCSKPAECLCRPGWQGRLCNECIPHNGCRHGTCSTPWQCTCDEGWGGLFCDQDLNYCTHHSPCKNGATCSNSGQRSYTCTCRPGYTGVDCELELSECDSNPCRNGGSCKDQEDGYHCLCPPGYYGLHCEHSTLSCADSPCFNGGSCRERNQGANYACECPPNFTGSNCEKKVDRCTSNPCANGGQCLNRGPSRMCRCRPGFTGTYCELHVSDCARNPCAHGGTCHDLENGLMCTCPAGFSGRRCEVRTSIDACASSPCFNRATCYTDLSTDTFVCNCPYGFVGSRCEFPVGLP
The EC50 is the midpoint of the concentration-response curve. A low value points to an effect from little substance. Consider B1, for which the EC50 came to 1.8 nM. The result for B2 reads 0.23 nM; that for B3, 0.57 nM. As to B4, it took 0.36 nM to reach a half-maximal effect (EC50). The result for B5 reads 2.78 nM; that for B6, 9.27 nM; that for B7, 0.57 nM.

On to B8, for which the EC50 was 0.71 nM. As to B9, the midpoint of the response, the EC50, lay at 0.33 nM. The result for B10 reads 0.61 nM; that for B11, 0.4 nM; that for B12, 0.09 nM. The result for B13 reads 13.9 nM. The result for B14 reads 0.24 nM; that for B15, 0.13 nM; that for B16, 0.41 nM. As for B17, the concentration for a half-maximal effect (EC50) is 0.26 nM. Turning to B18, the EC50 is 0.5 nM. The result for B19 reads 30.5 nM. The result for B20 reads 21.1 nM. For the molecule B21, the EC50 is 0.48 nM. The result for B22 reads 0.66 nM; that for B23, 0.47 nM. The result for B24 reads 0.2 nM.

As to B25, a half-maximal response (EC50) required 17.3 nM.

The values are drawn from patent US9029508 (dated 2015).
